The values that follow come from IntAct's records for PubMed 31404830.

The labels stand for the following.
B1: PRL-1 phosphatase (Drosophila melanogaster (Fruit fly)), O61722 (parent)
chain: MSITMRQKDLRPAPALIEYKGMKFLITDRPSDITINHYIMELKKNNVNTVVRVCEPSYNTDELETQGITVKDLAFEDGTFPPQQVVDEWFEVLKDKYQQNPEACVAVHCVAGLGRAPVLVALALIELGLKYEAAVEMIRDKRRGAINAKQLSFLEKYKPKARLKHKNGHKNSCSVQ

Variants of B1 are the subject of this test. Conditions: with uex_drome uex.
D77A;C109S: the “effect of a mutation on the interaction” value was “decreasing interaction strength”.
